Results: IntAct's records for PubMed 22578008

B1: Laforin (Mus musculus), Q9WUA5 (parent)
chain: MLFRFGVVVPPAVAGARQELLLAGSRPELGRWEPHGAVRLRPAGTAAGAAALALQEPGLWLAEVELEAYEEAGGAEPGRVDTFWYKFLQREPGGELHWEGNGPHHDRCCTYNEDNLVDGVYCLPVGHWIEATGHTNEMKHTTDFYFNIAGHQAMHYSRILPNIWLGSCPRQLEHVTIKLKHELGVTAVMNFQTEWDIIQNSSGCNRYPEPMTPDTMMKLYKEEGLSYIWMPTPDMSTEGRVQMLPQAVCLLHALLENGHTVYVHCNAGVGRSTAAVCGWLHYVIGWNLRKVQYFIMAKRPAVYIDEDALAQAQQDFSQKFGKVHSSICAL
partner: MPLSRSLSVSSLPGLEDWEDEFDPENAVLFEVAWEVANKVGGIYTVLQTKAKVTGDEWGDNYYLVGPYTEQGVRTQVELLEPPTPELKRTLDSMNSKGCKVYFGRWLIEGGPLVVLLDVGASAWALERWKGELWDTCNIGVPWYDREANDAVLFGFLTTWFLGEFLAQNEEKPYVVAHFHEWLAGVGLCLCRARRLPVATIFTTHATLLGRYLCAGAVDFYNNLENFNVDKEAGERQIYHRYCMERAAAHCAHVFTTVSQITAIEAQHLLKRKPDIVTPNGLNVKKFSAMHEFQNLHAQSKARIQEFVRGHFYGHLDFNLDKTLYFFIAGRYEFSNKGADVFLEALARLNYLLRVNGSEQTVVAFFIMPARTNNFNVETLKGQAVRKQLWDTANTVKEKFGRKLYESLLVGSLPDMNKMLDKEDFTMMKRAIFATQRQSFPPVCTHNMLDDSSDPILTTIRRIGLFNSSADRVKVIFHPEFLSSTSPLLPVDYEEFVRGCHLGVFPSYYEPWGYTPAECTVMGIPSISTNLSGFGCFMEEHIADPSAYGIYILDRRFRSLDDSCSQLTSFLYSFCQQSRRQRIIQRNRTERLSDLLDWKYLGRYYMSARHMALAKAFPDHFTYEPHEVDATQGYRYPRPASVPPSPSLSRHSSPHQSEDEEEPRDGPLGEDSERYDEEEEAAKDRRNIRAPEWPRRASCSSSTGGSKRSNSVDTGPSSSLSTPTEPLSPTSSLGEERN
B2: E3 ubiquitin-protein ligase NHLRC1 (Homo sapiens), Q6VVB1 (parent)
chain: MAAEASESGPALHELMREAEISLLECKVCFEKFGHRQQRRPRNLSCGHVVCLACVAALAHPRTLALECPFCRRACRGCDTSDCLPVLHLIELLGSALRQSPAAHRAAPSAPGALTCHHTFGGWGTLVNPTGLALCPKTGRVVVVHDGRRRVKIFDSGGGCAHQFGEKGDAAQDIRYPVDVTITNDCHVVVTDAGDRSIKVFDFFGQIKLVIGGQFSLPWGVETTPQNGIVVTDAEAGSLHLLDVDFAEGVLRRTERLQAHLCNPRGVAVSWLTGAIAVLEHPLALGTGVCSTRVKVFSSSMQLVGQVDTFGLSLYFPSKITASAVTFDHQGNVIVADTSGPAILCLGKPEEFPVPKPMVTHGLSHPVALTFTKENSLLVLDTASHSIKVYKVDWG
partner: B1 chain

Variants of: B1
Conditions: with gys1_mouse Gys1, Q9Z1E4

Row | Variant | effect of a mutation on the interaction
1 | MLFRFGVVVPPAVAGARQELLLAGSRPELGRWEPHGAVRLRPAGTAAGAAALALQEPGLWLAEVELEAYEEAGGAEPGRVDTFWYKFLQREPGGELHWEGNGPHHDRCCTYNEDNLVDGVYCLPVGHWIEATGHTNEMKHTTDFYFNIAGHQAMHYSRILPNIWLGSCPRQLEHVTIKLKHELGVTAVMNFQTEWDIIQNSSGCNRYPEPMTPDTMMKLYKEEGLSYIWMPTPDMSTEGRVQMLPQAVCLLHALLENGHTVYVHSNAGVGRSTAAVCGWLHYVIGWNLRKVQYFIMAKRPAVYIDEDALAQAQQDFSQKFGKVHSSICAL [C265S] | increasing interaction

Variants of: B2
Conditions: with epm2a_mouse Epm2a

Row | Variant | effect of a mutation on the interaction
2 | MAAEASESGPALHELMREAEISLLECKVCFEKFGHRQQRRPRNLSCGHVVCLACVAALAHPRTLALECPFCRRACRGCDTSDCLPVLHLIELLGSALRQSPAAHRAAPSAPGALTCHHTFGGWGTLVNPTGLALCPKTGRVVVVHDGRRRVKIFDSGGGCAHQFGEKGDAAQDIRYPVDVTITNDCHVVVTDAGDRSIKVFDFFGQIKLVIGGQFSLPWGVETTPQNGIVVTAAEAGSLHLLDVDFAEGVLRRTERLQAHLCNPRGVAVSWLTGAIAVLEHPLALGTGVCSTRVKVFSSSMQLVGQVDTFGLSLYFPSKITASAVTFDHQGNVIVADTSGPAILCLGKPEEFPVPKPMVTHGLSHPVALTFTKENSLLVLDTASHSIKVYKVDWG [D233A] | disrupting interaction

Variants of: B2
Conditions: with epm2a_mouse Epm2a
Remark: another data set of the same source

Row | Variant | effect of a mutation on the interaction
3 | MAAEASESGPALHELMREAEISLLECKVCFEKFGHRQQRRPRNLSCGHVVCLACVAALAHPRTLALECPFCRRACRGCDTSDCLPVLHLIELLGSALRQSPAAHRAAPSAPGALTCHHTFGGWGTLVNPTGLALCPKTGRVVVVHDGRRRVKIFDSGGGCAHQFGEKGDAAQDIRYPVDVTITNDCHVVVTDAGDRSIKVFDFFGQIKLVIGGQFSLPWGVETTPQNGIVVTDAEAGSLHLLDVDFAEGVLRRTERLQAHLCNHRGVAVSWLTGAIAVLEHPLALGTGVCSTRVKVFSSSMQLVGQVDTFGLSLYFPSKITASAVTFDHQGNVIVADTSGPAILCLGKPEEFPVPKPMVTHGLSHPVALTFTKENSLLVLDTASHSIKVYKVDWG [P264H] | disrupting interaction

Variants of: B2
Conditions: with epm2a_mouse Epm2a
Remark: another data set of the same source

Row | Variant | effect of a mutation on the interaction
4 | MAAEASESGPALHELMREAEISLLECKVCFEKFGHRQQRRPRNLSCGHVVCLACVAALAHPRTLALECPFCRRACRGCDTSDCLPVLHLIELLGSALRQSPAAHRAAPSAPGALTCHHTFGGWGTLVNPTGLALCPKTGRVVVVHDGRRRVKIFDSGGGCAHQFGEKGDAAQDIRYPVDVTITNDCHVVVTDAGDRSIKVFDFFGQIKLVIGGQFSLPWGVETTPQNGIVVTDAEAGSLHLLDVDFAEGVLRRTERLQAHLCNPRGVAVSWLTGAIAVLEHPLALGTGVCSTRVKVFSSSMPLVGQVDTFGLSLYFPSKITASAVTFDHQGNVIVADTSGPAILCLGKPEEFPVPKPMVTHGLSHPVALTFTKENSLLVLDTASHSIKVYKVDWG [Q302P] | decreasing interaction

Variants of: B2
Conditions: with epm2a_mouse Epm2a
Remark: another data set of the same source

Row | Variant | effect of a mutation on the interaction
5 | MAAEASESGPALHELMREAEISLLECKVCFEKFGHRQQRRPRNLSCGHVVCLACVAALAHPRTLALECPFCRRACRGCDTSDCLPVLHLIELLGSALRQSPAAHRAAPSAPGALTCHHTFGGWGTLVNPTGLALCPKTGRVVVVHDGRRRVKIFDSGGGCAHQFGEKGDAAQDIRYPVDVTITNDCHVVVTDAGDRSIKVFDFFGQIKLVIGGQFSLPWGVETTPQNGIVVTDAEAGSLHLLDVDFAEGVLRRTERLQAHLCNPRGVAVSWLTGAIAVLKHPLALGTGVCSTRVKVFSSSMQLVGQVDTFGLSLYFPSKITASAVTFDHQGNVIVADTSGPAILCLGKPEEFPVPKPMVTHGLSHPVALTFTKENSLLVLDTASHSIKVYKVDWG [E280K] | disrupting interaction

Variants of: B2
Conditions: with epm2a_mouse Epm2a
Remark: another data set of the same source

Row | Variant | effect of a mutation on the interaction
6 | MAAEASESGPALHELMREAEISLLECKVCFEKFGHRQQRRPRNLSCGHVVCLACVAALAHPRTLALECPFCRRACRGCDTSDCLPVPHLIELLGSALRQSPAAHRAAPSAPGALTCHHTFGGWGTLVNPTGLALCPKTGRVVVVHDGRRRVKIFDSGGGCAHQFGEKGDAAQDIRYPVDVTITNDCHVVVTDAGDRSIKVFDFFGQIKLVIGGQFSLPWGVETTPQNGIVVTDAEAGSLHLLDVDFAEGVLRRTERLQAHLCNPRGVAVSWLTGAIAVLEHPLALGTGVCSTRVKVFSSSMQLVGQVDTFGLSLYFPSKITASAVTFDHQGNVIVADTSGPAILCLGKPEEFPVPKPMVTHGLSHPVALTFTKENSLLVLDTASHSIKVYKVDWG [L87P] | decreasing interaction

Variants of: B2
Conditions: with epm2a_mouse Epm2a
Remark: another data set of the same source

Row | Variant | effect of a mutation on the interaction
7 | MAAEASESGPALHELMREAEISLLECKVCFEKFGHRQQRRPRNLSCGHVVCLACVAALAHPRTLALECPFCRRACRGCDTSDCLPVLHLIELLGSALRQSPAAHRAAPSAPGALTCHHTFGGWGTLVNPTGLALCPKTGRVVVVHNGRRRVKIFDSGGGCAHQFGEKGDAAQDIRYPVDVTITNDCHVVVTDAGDRSIKVFDFFGQIKLVIGGQFSLPWGVETTPQNGIVVTDAEAGSLHLLDVDFAEGVLRRTERLQAHLCNPRGVAVSWLTGAIAVLEHPLALGTGVCSTRVKVFSSSMQLVGQVDTFGLSLYFPSKITASAVTFDHQGNVIVADTSGPAILCLGKPEEFPVPKPMVTHGLSHPVALTFTKENSLLVLDTASHSIKVYKVDWG [D146N] | disrupting interaction

Variants of: B2
Conditions: with epm2a_mouse Epm2a
Remark: another data set of the same source

Row | Variant | effect of a mutation on the interaction
8 | MAAEASESGPALHELMREAEISLLECKVCFEKFGHRQQRRPRNLSCGHVVCLACVAALAHPRTLALECPFCRRACRGCDTSDCLPVLHLIELLGSALRQSPAAHRAAPSAPGALTCHHTFGGWGTLVNPTGLALCPKTGRVVVVHDGRRRVKIFDSGGGCAHQFGEKGDAAQDIRYPVDVTITNDCHVVVTDAGDRSNKVFDFFGQIKLVIGGQFSLPWGVETTPQNGIVVTDAEAGSLHLLDVDFAEGVLRRTERLQAHLCNPRGVAVSWLTGAIAVLEHPLALGTGVCSTRVKVFSSSMQLVGQVDTFGLSLYFPSKITASAVTFDHQGNVIVADTSGPAILCLGKPEEFPVPKPMVTHGLSHPVALTFTKENSLLVLDTASHSIKVYKVDWG [I198N] | disrupting interaction

Variants of: B2
Conditions: with epm2a_mouse Epm2a
Remark: another data set of the same source

Row | Variant | effect of a mutation on the interaction
9 | MAAEASESGPALHELMREAEISLLESKVCFEKFGHRQQRRPRNLSCGHVVCLACVAALAHPRTLALECPFCRRACRGCDTSDCLPVLHLIELLGSALRQSPAAHRAAPSAPGALTCHHTFGGWGTLVNPTGLALCPKTGRVVVVHDGRRRVKIFDSGGGCAHQFGEKGDAAQDIRYPVDVTITNDCHVVVTDAGDRSIKVFDFFGQIKLVIGGQFSLPWGVETTPQNGIVVTDAEAGSLHLLDVDFAEGVLRRTERLQAHLCNPRGVAVSWLTGAIAVLEHPLALGTGVCSTRVKVFSSSMQLVGQVDTFGLSLYFPSKITASAVTFDHQGNVIVADTSGPAILCLGKPEEFPVPKPMVTHGLSHPVALTFTKENSLLVLDTASHSIKVYKVDWG [C26S] | decreasing interaction
